Values quoted from earlier work in article PMC8467547.
pKd: −log10 of the molar value.

Experiments:
IFNAR2 (Homo sapiens) = IFNAR2 (Homo sapiens) (UniProt P48551)
IFNAR1 (Homo sapiens) = IFNAR1 (Homo sapiens) (UniProt P17181)
UniProt P17181, sequence (P17181 28-436): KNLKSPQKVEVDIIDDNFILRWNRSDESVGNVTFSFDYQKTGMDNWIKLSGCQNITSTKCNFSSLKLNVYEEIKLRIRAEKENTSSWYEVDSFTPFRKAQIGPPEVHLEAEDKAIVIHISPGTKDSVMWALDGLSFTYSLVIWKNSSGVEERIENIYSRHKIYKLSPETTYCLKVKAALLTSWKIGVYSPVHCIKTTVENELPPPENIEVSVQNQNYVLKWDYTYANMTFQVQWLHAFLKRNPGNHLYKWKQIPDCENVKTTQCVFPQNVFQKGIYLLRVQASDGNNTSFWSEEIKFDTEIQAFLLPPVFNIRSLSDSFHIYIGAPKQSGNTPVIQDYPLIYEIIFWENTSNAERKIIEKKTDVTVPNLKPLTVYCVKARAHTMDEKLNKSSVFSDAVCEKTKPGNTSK

UniProt P48551, sequence (P48551 27-243): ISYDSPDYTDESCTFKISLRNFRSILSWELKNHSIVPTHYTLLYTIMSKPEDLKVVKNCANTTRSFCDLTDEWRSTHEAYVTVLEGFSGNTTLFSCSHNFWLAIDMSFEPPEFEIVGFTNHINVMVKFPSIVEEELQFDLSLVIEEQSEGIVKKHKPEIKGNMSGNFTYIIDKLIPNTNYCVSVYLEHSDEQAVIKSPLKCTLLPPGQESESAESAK

pKd (IFNAR2 (Homo sapiens)): 9.70
pKd (IFNAR1 (Homo sapiens)): 7.00
Substance: IFN-beta (from UniProt P01574)
